Experimental data published in paper PMC11459905, “Identification of SLC25A46 interaction interfaces with mitochondrial membrane fusogens Opa1 and Mfn2” (The Journal of Biological Chemistry, 2024).

Biological target: T1, Strep-Opa1 (s-Opa1, amino acids 253-960), expressed in P. pastoris (human, UniProt O60313 253-960)
T1 construct: Opa1 (optic atrophy 1), human, residues 253-960 (s-Opa1); N-terminal Twin-Strep tag, HRV 3C cleavage site and (G4S)3 linker; The methods also name a tagged Opa1(263-960); also called optic atrophy 1; Opa1(253-960); source: P. pastoris SMD1163, in GDN extract (lysate); purified as a complex with SLC25A46 for cross-linking; not shown: Twin-Strep, N-terminal, kept
T1 sequence (looked up): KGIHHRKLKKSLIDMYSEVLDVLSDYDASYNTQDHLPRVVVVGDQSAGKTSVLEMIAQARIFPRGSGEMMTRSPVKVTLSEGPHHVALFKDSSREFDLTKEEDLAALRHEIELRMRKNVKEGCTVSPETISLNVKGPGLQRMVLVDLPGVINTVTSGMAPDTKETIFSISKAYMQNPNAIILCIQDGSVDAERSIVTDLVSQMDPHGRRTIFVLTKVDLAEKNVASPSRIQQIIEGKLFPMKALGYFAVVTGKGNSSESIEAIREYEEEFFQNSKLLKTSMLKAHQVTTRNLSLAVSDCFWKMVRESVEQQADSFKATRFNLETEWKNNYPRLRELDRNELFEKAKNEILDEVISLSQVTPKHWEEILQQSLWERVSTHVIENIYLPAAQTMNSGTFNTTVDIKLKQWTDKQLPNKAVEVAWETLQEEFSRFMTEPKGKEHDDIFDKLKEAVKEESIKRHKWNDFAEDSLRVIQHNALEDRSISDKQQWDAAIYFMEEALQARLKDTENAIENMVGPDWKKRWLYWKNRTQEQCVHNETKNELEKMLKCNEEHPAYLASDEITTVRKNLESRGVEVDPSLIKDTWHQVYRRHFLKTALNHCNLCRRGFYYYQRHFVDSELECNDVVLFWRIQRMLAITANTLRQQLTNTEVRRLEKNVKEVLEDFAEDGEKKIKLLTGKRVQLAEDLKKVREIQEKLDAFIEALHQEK
Assay: pull-down; GDN extracts of P. pastoris expressing or coexpressing the proteins; Strep-tagged Opa1 or Mfn2 held on StrepTactin XT 4Flow resin in a spin column, 4 °C, 25 mM Hepes, 150 mM NaCl, pH 8.0, washes with 0.1% GDN, elution with 50 mM biotin; Western blot; also with GTPγS, GMPPCP or GDP added to the lysates (no effect on coelution)
Conditions: partners not purified

B1: Solute carrier family 25 member A46 with C-terminal deca-histidine (SLC25A46-His), wild type (natural protein, human, UniProt Q96AG3 1-418, looked up)
chain: MHPRRPDGFDGLGYRGGARDEQGFGGAFPARSFSTGSDLGHWVTTPPDIPGSRNLHWGEKSPPYGVPTTSTPYEGPTEEPFSSGGGGSVQGQSSEQLNRFAGFGIGLASLFTENVLAHPCIVLRRQCQVNYHAQHYHLTPFTVINIMYSFNKTQGPRALWKGMGSTFIVQGVTLGAEGIISEFTPLPREVLHKWSPKQIGEHLLLKSLTYVVAMPFYSASLIETVQSEIIRDNTGILECVKEGIGRVIGMGVPHSKRLLPLLSLIFPTVLHGVLHYIISSVIQKFVLLILKRKTYNSHLAESTSPVQSMLDAYFPELIANFAASLCSDVILYPLETVLHRLHIQGTRTIIDNTDLGYEVLPINTQYEGMRDCINTIRQEEGVFGFYKGFGAVIIQYTLHAAVLQITKIIYSTLLQNNI
notes: SLC25A46, human; gene synthesized (GenScript), cloned into pPICZ A; C terminus fused to (G4S)3 linker, TEV cleavage site and deca-histidine; only a pPICZ A (P. pastoris) construct of SLC25A46 is described; also called WT SLC25A46; source: P. pastoris SMD1163, in GDN extract (lysate); also recombinantly expressed and purified; not shown: His10, C-terminal, kept
Does B1 bind?
Result: binds
